Assay results reported in US20220073641A1, “FUSION PROTEIN OF ANTIBODY THAT RECOGNIZES CANCER CELLS AND MUTANT STREPTAVIDIN” (The University of Tokyo, priority 2018, published 2022).
Values belong to the molecule of their own block, whether it stands above or below them.

Assays:
MKN45 cells [1] = test: In vivo cytotoxicity test in MKN45 xenograft mouse models with 690 nm light; set-up: species or system nude mice; details: 100 μg complex of CEA-V2122 and Compound 1 via caudal vein; 690 nm 230 J/cm^2 at 6 and 24 hours; pathology on 7th day; FIG. 11, 12
From the text: MKN45 cells were subcutaneously transplanted into nude mice to produce xenograft mouse models. That is, 4-week-old female nude mice were purchased, and the mice were then acclimated for 1 week. Thereafter, the MKN45 cells were transplanted in a cell count of 2×10^5 cells per mouse into the subcutis thereof. […] Using an LED light source emitting a light having a wavelength of 690 nm (USHIO OPTO SEMICONDUCTORS, INC., LD690D-66-60-550.), T-Cube LED Driver (THORLABS, NC0713145), and T-CUBE 15V POWER SUPPLY (THORLABS, TPS001), 6 hours after the administration, the mice were irradiated with the light having a wavelength of 690 nm, so that the irradiation energy became 230 J/cm^2. Twenty-four hours after administration of the complex, the mice were irradiated again with the light having a wavelength of 690 nm, so that the irradiation energy became 230 J/cm^2. Individual mice were euthanized on the 7th day after administration of the complex and were then excised, and the tumor portions were subjected to pathological analysis. The specific method is as follows. That is, the subcutaneous tumor of each mouse and the peripheral tissues thereof were excised as a mass, and the mass was then immersed in a 4% paraformaldehyde solution (Wako Pure Chemical Industries, Ltd., 163-20145) at mom temperature overnight, so that the tissues were fixed. […]

MKN45 cells [2] = test: Cytotoxicity test using CEA-V2122 and photoactivatable compound-labeled modified biotins with 690 nm light; details: complex with CEA-V2122 (molar ratio 1:2), 0.039-10 μg/mL, 690±10 nm 100 J/cm^2, 48 hours, Cell Counting Kit-8; FIG. 8
Description: Specifically, MKN45 cells were seeded on a 96-well plate for cell culture, so that the cell count became 5×10^3 cells/well and the amount of the culture solution became 50 μL/well, and thereafter, the cells were cultured overnight. […] Regarding serial dilutions, 20 μg/mL was set to be an initial concentration, from 4-fold serial dilutions (5.0 μg/mL, 1.25 μg/mL, 0.312 μg/mL, and 0.078 μg/mL), 5 complex serial dilution solutions were prepared. Besides, a medium alone that contained no complex was used as a zero control.
Such complex serial dilution solutions were each added in an amount of 50 μL/well to the cells cultured overnight, so that the final concentrations became 10 μg/mL, 2.5 μg/mL, 0.625 μg/mL, 0.156 μg/mL, and 0.039 μg/mL One hour and two hours after addition of the complex, the cells were irradiated with a light, using LED emitting a light having a wavelength of 690±10 nm, so that the irradiation energy became 100 J/cm^2. […] Each condition was set to be n=3. The dosage and administration were determined in accordance with the instruction manuals included with the kit, and after addition of the reagent, the mixture was incubated for 1.5 hours at 37° C., in a CO2 incubator. Thereafter, the absorbance at 450 nm was measured, and the mean value was then calculated, followed by background collection. […]

[3] = target: T1, Recombinant Human CEACAM-5/CD66e Protein, CF (R & D SYSTEMS) (human, UniProt P06731 35-685); test: SPR (Biacore T200), CEACAM5 immobilized on CM5, CEA-V2122 as analyte, single-cycle kinetics, bivalent analysis fit
T1 construct: Purchased protein, amine-coupled to a CM5 chip; also called antigen CEACAM5
T1 sequence (looked up): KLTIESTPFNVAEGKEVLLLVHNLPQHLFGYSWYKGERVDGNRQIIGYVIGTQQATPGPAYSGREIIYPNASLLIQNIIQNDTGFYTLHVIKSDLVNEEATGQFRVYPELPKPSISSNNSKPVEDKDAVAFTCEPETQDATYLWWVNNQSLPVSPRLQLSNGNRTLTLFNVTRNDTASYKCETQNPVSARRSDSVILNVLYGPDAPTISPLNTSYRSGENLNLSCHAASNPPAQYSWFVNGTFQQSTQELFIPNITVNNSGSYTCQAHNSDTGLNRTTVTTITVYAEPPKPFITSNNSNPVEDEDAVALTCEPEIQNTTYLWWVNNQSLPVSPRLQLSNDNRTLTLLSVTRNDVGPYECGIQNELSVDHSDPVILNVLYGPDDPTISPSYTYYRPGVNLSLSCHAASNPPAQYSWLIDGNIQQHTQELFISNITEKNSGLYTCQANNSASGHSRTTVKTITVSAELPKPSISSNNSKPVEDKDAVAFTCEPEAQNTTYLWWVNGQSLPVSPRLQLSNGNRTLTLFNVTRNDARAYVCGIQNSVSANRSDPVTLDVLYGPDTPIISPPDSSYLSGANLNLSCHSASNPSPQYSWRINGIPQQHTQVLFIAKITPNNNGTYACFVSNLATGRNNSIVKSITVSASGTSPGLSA

[4] = SPR (Biacore T200) interaction between immobilized CEA-V2122 and a modified biotin; format: binding
Description: Furthermore, the interaction between CEA-V2122 and a modified biotin was also analyzed using Biacore T200. The modified biotin was specifically the title compound 14 described in Example 1 of International Publication WO2018/07239. In addition, the analysis method was specifically as follows. That is, an amine-coupling kit was used, a target value was set to be 5000 RU, and the purified CEA-V2122 was immobilized on Sensor Chip CM5.

CEACAM5 [5] = target: T2, CEACAM5 (Homo sapiens, UniProt P06731); test: SPR (Biacore T200) affinity of CEA-V2122 for immobilized antigen CEACAM5; format: binding; set-up: purchased R & D SYSTEMS
T2 sequence (P06731 35-676): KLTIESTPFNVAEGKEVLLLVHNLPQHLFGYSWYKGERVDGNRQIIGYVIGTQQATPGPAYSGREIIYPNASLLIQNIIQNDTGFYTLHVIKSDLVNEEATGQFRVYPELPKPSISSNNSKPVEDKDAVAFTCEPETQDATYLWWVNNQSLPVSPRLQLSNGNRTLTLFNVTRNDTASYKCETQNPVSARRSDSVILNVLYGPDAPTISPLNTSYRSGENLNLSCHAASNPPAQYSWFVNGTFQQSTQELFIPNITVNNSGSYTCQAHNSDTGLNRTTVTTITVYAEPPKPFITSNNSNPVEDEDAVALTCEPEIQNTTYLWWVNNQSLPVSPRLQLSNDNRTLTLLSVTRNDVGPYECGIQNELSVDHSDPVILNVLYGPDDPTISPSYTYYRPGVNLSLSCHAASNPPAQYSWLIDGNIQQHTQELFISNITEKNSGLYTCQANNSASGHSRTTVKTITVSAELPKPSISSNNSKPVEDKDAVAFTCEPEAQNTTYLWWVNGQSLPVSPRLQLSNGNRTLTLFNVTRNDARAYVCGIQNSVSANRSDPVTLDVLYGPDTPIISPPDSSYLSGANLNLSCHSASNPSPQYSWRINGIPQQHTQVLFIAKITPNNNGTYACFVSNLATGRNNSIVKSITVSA

CEACAM5 [6] = target: T2, CEACAM5; test: Cell staining of CEACAM5-expressing cell line using FITC-labeled CEA-V2122; format: cell-based
Description: In order to stain a CEACAM5 expression-positive cancer cell line, FTC labeling was carried out on the cell line, using 100 μg of a purified CEA-V2122 protein. Specifically, labeling was carried out using Fluorescein Labeling Kit—NH2 (DOJINDO LABORATORIES) in accordance with the dosage and administration described in the operating manual included with the kit, and the obtained product was defined to be CEA-V2122-FITC. Specific staining of the CEACAM5 expression-positive cancer cell line is as follows. That is, CEACAM5-positive human stomach cancer-derived MKN-45 cells and CEACAM5-negative human colon cancer-derived DLD1 cells were each seeded on a CELLSTAR, μClear, 96-well plate (Greiner) to a cell density of 2.0×10^4 cells/well, and thereafter, the cells were cultured overnight. Subsequently, a culture solution containing 20 nM CEA-V2122-FITC and 1 μM Hoechist was added to the 96-well plate to a concentration of 100 μL/well, and the obtained mixture was then reacted at 4° C. for 30 minutes. Thereafter, each image was taken using In Cell Analyzer 6000 (GE Healthcare Life Sciences).

[7] = single-cycle kinetics, bivalent analysis mode, CEA-V2122 immobilized, modified biotin analyte
[8] = single-cycle kinetics, bivalent analysis mode, CEACAM5 immobilized, CEA-V2122 analyte

Kd [3]: 1.08 pM
B1: CEA-V2122 (scFv)
chain: QVKLEQSGAEVVKPGASVKLSCKASGFNIKDSYMHWLRQGPGQRLEWIGWIDPENGDTEYAPKFQGKATFTTDTSANTAYLGLSSLRPEDTAVYYCNEGTPTGPYYFDYWGQGTLVTVSSGGGGSGGGGSGGGGSENVLTQSPSSMSVSVGDRVNIACSASSSVPYMHWLQQKPGKSPKLLIYLTSNLASGVPSRFSGSGSGTDYSLTISSVQPEDAATYYCQQRSSYPLTFGGGTKLEIKGGGGSGGGGAEAGITGTWSDQLGDTFIVTAGADGALTGTYENAVGGAESRYVLTGRYDSAPATDGSGTALGWTVAWKNNSKNAHSATTWSGQYVGGADAKINTQWLLTSGTTNANAWKSTLVGHDTFTKVKPSAASHHHHHH
notes: also called CEA-Cupid; scFv-V2122

binding to a modified biotin ([4]; from the KD value in the sensorgram, FIG. 4): strongly binds to a modified biotin
KD=kd1/ka1 (CEACAM5 [5]; bivalent analysis mode): 1.078E−12
binding to CEACAM5 (CEACAM5 [5]; from the KD value in the sensorgram, FIG. 3): strongly binds to CEACAM5
ka1 (CEACAM5 [5]; [8]): 3.208E+5
kd1 (CEACAM5 [5]; [8]): 3.461E−7
B2: CEA-V2122: scFv-type anti-CEACAM5 antibody bound with mutant streptavidin V2122 via linker GGGGSGGGG; SEQ ID NO: 3 (protein)
chain: QVKLEQSGAEVVKPGASVKLSCKASGFNIKDSYMHWLRQGPGQRLEWIGWIDPENGDTEYAPKFQGKATFTTDTSANTAYLGLSSLRPEDTAVYYCNEGTPTGPYYFDYWGQGTLVTVSSGGGGSGGGGSGGGGSENVLTQSPSSMSVSVGDRVNIACSASSSVPYMHWLQQKPGKSPKLLIYLTSNLASGVPSRFSGSGSGTDYSLTISSVQPEDAATYYCQQRSSYPLTFGGGTKLEIKGGGGSGGGGAEAGITGTWSDQLGDTFIVTAGADGALTGTYENAVGGAESRYVLTGRYDSAPATDGSGTALGWTVAWKNNSKNAHSATTWSGQYVGGADAKINTQWLLTSGTTNANAWKSTLVGHDTFTKVKPSAASHHHHHH
ka1 [4, 7]: 3.792E+4
kd1 [4, 7]: 4.424E−6

Second part, the molecule before the results:

Molecule: C[Si](C)(CCC[N+](CCCS(=O)(=O)[O-])(CCCS(=O)(=O)O)CCCS(=O)(=O)O)O[Si]1(O[Si](C)(C)CCC[N+](CCCS(=O)(=O)[O-])(CCCS(=O)(=O)O)CCCS(=O)(=O)O)N2/C3=N\C4=NC(=N\c5c6c(OCCCOC(=O)NCCCCCC(=O)NCCOCCOCCN(CC(=O)NCCCCNC(=O)CCCC[C@@H]7SC[C@@H]8NC(=N)N[C@@H]87)CC(=O)NCCCCNC(=O)CCCC[C@@H]7SC[C@@H]8NC(=N)N[C@@H]87)cccc6c(n51)/N=C1\N=C(NC2c2ccccc23)c2ccccc21)/c1ccccc14 (stereo partly drawn) [Compound 1]
tumor necrosis (MKN45 cells [1]): necrosis can be induced to the tumor of the xenograft mouse model
cytotoxicity (MKN45 cells [2]): exhibits cytotoxicity in a concentration-dependent manner

B3: CEA-V2122-FITC: purified CEA-V2122 protein labeled with Fluorescein Labeling Kit—NH2 (protein)
chain: QVKLEQSGAEVVKPGASVKLSCKASGFNIKDSYMHWLRQGPGQRLEWIGWIDPENGDTEYAPKFQGKATFTTDTSANTAYLGLSSLRPEDTAVYYCNEGTPTGPYYFDYWGQGTLVTVSSGGGGSGGGGSGGGGSENVLTQSPSSMSVSVGDRVNIACSASSSVPYMHWLQQKPGKSPKLLIYLTSNLASGVPSRFSGSGSGTDYSLTISSVQPEDAATYYCQQRSSYPLTFGGGTKLEIKGGGGSGGGGAEAGITGTWSDQLGDTFIVTAGADGALTGTYENAVGGAESRYVLTGRYDSAPATDGSGTALGWTVAWKNNSKNAHSATTWSGQYVGGADAKINTQWLLTSGTTNANAWKSTLVGHDTFTKVKPSAASHHHHHH
recognition of CEACAM5 on cells (CEACAM5 [6]; 20 nM, 4° C., 30 minutes, CEACAM5-positive MKN-45 vs CEACAM5-negative DLD1 cells, FIG. 5): specifically recognizes CEACAM5 on the surface of the cell membrane
localisation of CEACAM5 after binding (CEACAM5 [6]; MKN45 cells, time series, FIG. 6): the CEACAM5 stays on the surface of the cell membrane
